This data set has as its system T1, substrate sequence FVQWFSKFLGK (SEQ ID NO:3).
T1 sequence: FVQWFSKFLGK

B1: granzyme K (enzyme, UniProt P49863 27-264, looked up, species assumed)
Granzyme K: IIGGKEVSPHSRPFMASIQYGGHHVCGGVLIDPQWVLTAAHCQYRFTKGQSPTVVLGAHSLSKNEASKQTLEIKKFIPFSRVTSDPQSNDIMLVKLQTAAKLNKHVKMLHIRSKTSLRSGTKCKVTGWGATDPDSLRPSDTLREVTVTVLSRKLCNSQSYYNGDPFITKDMVCAGDAKGQKDSCKGDSGGPLICKGVFHAIVSGGHECGVATKPGIYTLLTKKYQTWIKSNLVPPHTN
As for B1, the “protease specificity (cleavage activity; enzyme 5 nM, substrate 60 µM)” value is recorded as “the substrate sequence is highly specific for granzyme B compared to the other proteases tested”.

B2: C1S (enzyme, UniProt P09871 16-688, looked up, species assumed)
Complement C1s subcomponent: EPTMYGEILSPNYPQAYPSEVEKSWDIEVPEGYGIHLYFTHLDIELSENCAYDSVQIISGDTEEGRLCGQRSSNNPHSPIVEEFQVPYNKLQVIFKSDFSNEERFTGFAAYYVATDINECTDFVDVPCSHFCNNFIGGYFCSCPPEYFLHDDMKNCGVNCSGDVFTALIGEIASPNYPKPYPENSRCEYQIRLEKGFQVVVTLRREDFDVEAADSAGNCLDSLVFVAGDRQFGPYCGHGFPGPLNIETKSNALDIIFQTDLTGQKKGWKLRYHGDPMPCPKEDTPNSVWEPAKAKYVFRDVVQITCLDGFEVVEGRVGATSFYSTCQSNGKWSNSKLKCQPVDCGIPESIENGKVEDPESTLFGSVIRYTCEEPYYYMENGGGGEYHCAGNGSWVNEVLGPELPKCVPVCGVPREPFEEKQRIIGGSDADIKNFPWQVFFDNPWAGGALINEYWVLTAAHVVEGNREPTMYVGSTSVQTSRLAKSKMLTPEHVFIHPGWKLLEVPEGRTNFDNDIALVRLKDPVKMGPTVSPICLPGTSSDYNLMDGDLGLISGWGRTEKRDRAVRLKAARLPVAPLRKCKEVKVEKPTADAEAYVFTPNMICAGGEKGMDSCKGDSGGAFAVQDPNDKTKFYAAGLVSWGPQCGTYGLYTRVKNYVDWIMKTMQENSTPRED
On to B2, for which the “protease specificity (cleavage activity; enzyme 5 nM, substrate 60 µM)” value was “the substrate sequence is highly specific for granzyme B compared to the other proteases tested”.
